Data: patent US9394371 (Scripps Research, dated 2016)

B1: AP1-15B4 (antibody, V domains shown)
VH: EVHLVESGGDLVKPGGSLKLSCAASGFAFSDFAMSWVRQTPEKRLEWVAIIKSDDSYTYYPDSVRDRFTISRDNARNTLYLQMTSLRSEDTALYYCTKIYDAYFYAMDYWGQGTSVTVSS
VL: DIVRTQSPLSLSVSLGDQASISCRSSQSLLHSNGNTYLHWYLQKPGQSPKLLIYKVSNRFSGVPDRFSGSGSGTDFTLKISILEAEDLGIYFCSQSTHFPTFGGGTKLEIK
notes: also called mAb AP1-15B4; AP1 Sups 15B4
B2: 3B1 (antibody, V domains shown)
VH: QVQLQESGPGLVKPSETLSLTCTVSGGSISSYYWSWIRQPPGKGLEWIGYIYYSGNTNSNPSLKSRVTISVDTSKNQFSLKLSSVTAADTAVYYCARTYYDSSGYYYRAFDIWGQGTMVTVSS
VL: DIQMTQSPSSLSASEGDRVTITCRASQGIRNDLGWYQQKPGKAPKRLIYAASSLQSGVPLRFSGSGSGTEFTLTISSLQPEDFATYYCLQYNSYPWTFGQGTKVEIKR

Key:
[1] = molecular target: T1, AIP-3 (S. aureus III native cyclic signaling peptide) (Staphylococcus aureus); assay: competition ELISA on AP1-BSA
T1 construct: also called AIP3 wt; AIP-III

[2] = molecular target: AIP-1 (S. aureus I native cyclic signaling peptide) (Staphylococcus aureus); assay: competition ELISA on AP1-BSA

Binder	Kd [1]	Kd [2]
B1	~1 µM	–
B2	–	~6 µM
